# Test results published in patent publication US8618101B2, “N-((1R,2S,5R)-5-(tert-butylamino)-2-((S)-3-(7-tert-butylpyrazolo[1,5-a][1,3,5]triazin-4-ylamino)-2-oxopyrrolidin-1-yl)cyclohexyl)acetamide, a dual modulator of chemokine receptor activity, crystalline forms and processes” (Bristol-Myers Squibb Company, priority 2009, dated 2013).
# Molecular target: CCR-2 (Homo sapiens, UniProt P41597)
# Test: Cold competition ligand binding to hCCR-2 using 125I-human MCP-1
# Conditions: 125I-human MCP-1, n=8
# Sequence of CCR-2 (P41597 whole entry): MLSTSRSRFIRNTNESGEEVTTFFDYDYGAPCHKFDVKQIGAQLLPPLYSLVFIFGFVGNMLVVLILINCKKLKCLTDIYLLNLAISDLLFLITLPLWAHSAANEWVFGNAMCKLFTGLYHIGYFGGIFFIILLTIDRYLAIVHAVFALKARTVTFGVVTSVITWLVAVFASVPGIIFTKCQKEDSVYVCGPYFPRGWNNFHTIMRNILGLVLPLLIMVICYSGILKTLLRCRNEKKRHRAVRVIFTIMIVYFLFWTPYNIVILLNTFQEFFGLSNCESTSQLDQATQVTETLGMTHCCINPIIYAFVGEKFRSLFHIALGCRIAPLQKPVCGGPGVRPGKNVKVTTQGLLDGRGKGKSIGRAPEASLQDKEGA
substance,measurement,value
"mouse MCP-1: mouse chemokine MCP-1, major ligand of CCR-2",Kd,0.91 nM
